{"source": "the RNAGym collection of RNA variant scans (doi:10.7554/elife.80360)", "parents": {"B1": {"name": "HDV Ribozyme (parent)", "chain": "GGCCGGCAUGGUCCCAGCCUCCUCGCUGGCGCCGGCUGGGCAACAUUCCGAGGGGACCGUCCCCUCGGUAAUGGCGAAUGGGACCCA"}}, "data": [{"variants_of": "B1", "experiment": "self-cleavage, relative activity (ratio to wild type); higher = more cleavage; co-transcriptional", "values": [{"variant": "GGCCGGCAUGGUCCCAGCCUCCUCGCUGGCGCCGGCUGGGCAACAUUCCGAUGGGACCGUCCCCUCGGUAAUGGCGAAUGGGUCCCA", "note": "[G52U A83U]", "self-cleavage": 0.494}, {"variant": "GGCCGGCAUGGUCCCAGCCUCCUCGCUGGCGCCGGCUGGGCAACAUUCCGAUGGGACCGUCCCCUCGGUAAUGGCGAAUGGGCCCCA", "note": "[G52U A83C]", "self-cleavage": 0.259}, {"variant": "GGCCGGCAUGGUCCCAGCCUCCUCGCUGGCGCCGGCUGGGCAACAUUCCGAUGGGACCGUGCCCUCGGUAAUGGCGAAUGGGACCCA", "note": "[G52U C61G]", "self-cleavage": 0.927}, {"variant": "GGCCGGCAUGGUCCCAGCCUCCUCGCUGGCGCCGGCUGGGCAACAUUCCGACGGGACCGUCCCCUCGGUAAUGGCGAAUGAGACCCA", "note": "[G52C G81A]", "self-cleavage": 0.563}, {"variant": "GGCCGGCAUGGUCCCAGCCUCCUCGCUGGCGCCGGCUGGGCAACAUUCCGACGGGACCGUCCCCACGGUAAUGGCGAAUGGGACCCA", "note": "[G52C U65A]", "self-cleavage": 0.939}, {"variant": "GGCCGGCAUGGUCCCAGCCUCCUCGCUGGCGCCGGCUGGGCAACAUUCCGACGGGACCGUCCCCCCGGUAAUGGCGAAUGGGACCCA", "note": "[G52C U65C]", "self-cleavage": 1.18}, {"variant": "GGCCGGCAUGGUCCCAGCCUCCUCGCUGGCGCCGGCUGGGCAACAUUCCGACGGGACCGUCCCCUCGGUAAUAGCGAAUGGGACCCA", "note": "[G52C G73A]", "self-cleavage": 0.627}, {"variant": "GGCCGGCAUGGUCCCAGCCUCCUCGCUGGCGCCGGCUGGGCAACAUUCCGACGGGACCGUCCCCUCGGUAAUGGCGAAUCGGACCCA", "note": "[G52C G80C]", "self-cleavage": 0.326}, {"variant": "GGCCGGCAUGGUCCCAGCCUCCUCGCUGGCGCCGGCUGGGCAACAUUCCGAUGGGACCGUCCCCUCGGUAAUGGCGAAUGGGACACA", "note": "[G52U C85A]", "self-cleavage": 0.784}, {"variant": "GGCCGGCAUGGUCCCAGCCUCCUCGCUGGCGCCGGCUGGGCAACAUUCCGACGGGACCGUCCCCUCGGUAACGGCGAAUGGGACCCA", "note": "[G52C U72C]", "self-cleavage": 0.332}, {"variant": "GGCCGGCAUGGUCCCAGCCUCCUCGCUGGCGCCGGCUGGGCAACAUUCCGAUGGGAACGUCCCCUCGGUAAUGGCGAAUGGGACCCA", "note": "[G52U C57A]", "self-cleavage": 0.903}, {"variant": "GGCCGGCAUGGUCCCAGCCUCCUCGCUGGCGCCGGCUGGGCAACAUUCCGAUGGGACCGUCCCGUCGGUAAUGGCGAAUGGGACCCA", "note": "[G52U C64G]", "self-cleavage": 0.902}, {"variant": "GGCCGGCAUGGUCCCAGCCUCCUCGCUGGCGCCGGCUGGGCAACAUUCCGAUGGGACCGUCCCUUCGGUAAUGGCGAAUGGGACCCA", "note": "[G52U C64U]", "self-cleavage": 0.881}, {"variant": "GGCCGGCAUGGUCCCAGCCUCCUCGCUGGCGCCGGCUGGGCAACAUUCCGAUGGGACCGUCCCCUCGGUAAUGGCGCAUGGGACCCA", "note": "[G52U A77C]", "self-cleavage": 0.54}, {"variant": "GGCCGGCAUGGUCCCAGCCUCCUCGCUGGCGCCGGCUGGGCAACAUUCCGAUGGGACCGUCCCCUCGGUGAUGGCGAAUGGGACCCA", "note": "[G52U A70G]", "self-cleavage": 0.878}, {"variant": "GGCCGGCAUGGUCCCAGCCUCCUCGCUGGCGCCGGCUGGGCAACAUUCCGAUGGGACCGUCCGCUCGGUAAUGGCGAAUGGGACCCA", "note": "[G52U C63G]", "self-cleavage": 0.277}, {"variant": "GGCCGGCAUGGUCCCAGCCUCCUCGCUGGCGCCGGCUGGGCAACAUUCCGAUGGGACCGUCACCUCGGUAAUGGCGAAUGGGACCCA", "note": "[G52U C62A]", "self-cleavage": 0.822}, {"variant": "GGCCGGCAUGGUCCCAGCCUCCUCGCUGGCGCCGGCUGGGCAACAUUCCGAUGGGACCGUCGCCUCGGUAAUGGCGAAUGGGACCCA", "note": "[G52U C62G]", "self-cleavage": 0.106}, {"variant": "GGCCGGCAUGGUCCCAGCCUCCUCGCUGGCGCCGGCUGGGCAACAUUCCGACGGGACCGUCCCCUCGGCAAUGGCGAAUGGGACCCA", "note": "[G52C U69C]", "self-cleavage": 0.943}, {"variant": "GGCCGGCAUGGUCCCAGCCUCCUCGCUGGCGCCGGCUGGGCAACAUUCCGAUGGGACCGUCCCCUCGGUAAUGGCGAGUGGGACCCA", "note": "[G52U A78G]", "self-cleavage": 0.514}, {"variant": "GGCCGGCAUGGUCCCAGCCUCCUCGCUGGCGCCGGCUGGGCAACAUUCCGAUGGGUCCGUCCCCUCGGUAAUGGCGAAUGGGACCCA", "note": "[G52U A56U]", "self-cleavage": 0.787}, {"variant": "GGCCGGCAUGGUCCCAGCCUCCUCGCUGGCGCCGGCUGGGCAACAUUCCGAUGGGGCCGUCCCCUCGGUAAUGGCGAAUGGGACCCA", "note": "[G52U A56G]", "self-cleavage": 0.816}, {"variant": "GGCCGGCAUGGUCCCAGCCUCCUCGCUGGCGCCGGCUGGGCAACAUUCCGAUGGGACCGUCCCCUCGGUAAUGGUGAAUGGGACCCA", "note": "[G52U C75U]", "self-cleavage": 0.115}, {"variant": "GGCCGGCAUGGUCCCAGCCUCCUCGCUGGCGCCGGCUGGGCAACAUUCCGAUGGGACCGUCCCCUCGGUACUGGCGAAUGGGACCCA", "note": "[G52U A71C]", "self-cleavage": 0.745}, {"variant": "GGCCGGCAUGGUCCCAGCCUCCUCGCUGGCGCCGGCUGGGCAACAUUCCGAUGGGACAGUCCCCUCGGUAAUGGCGAAUGGGACCCA", "note": "[G52U C58A]", "self-cleavage": 0.888}, {"variant": "GGCCGGCAUGGUCCCAGCCUCCUCGCUGGCGCCGGCUGGGCAACAUUCCGAUGGGACGGUCCCCUCGGUAAUGGCGAAUGGGACCCA", "note": "[G52U C58G]", "self-cleavage": 0.95}, {"variant": "GGCCGGCAUGGUCCCAGCCUCCUCGCUGGCGCCGGCUGGGCAACAUUCCGAUAGGACCGUCCCCUCGGUAAUGGCGAAUGGGACCCA", "note": "[G52U G53A]", "self-cleavage": 0.849}, {"variant": "GGCCGGCAUGGUCCCAGCCUCCUCGCUGGCGCCGGCUGGGCAACAUUCCGACGGGACCGUCCCCUCCGUAAUGGCGAAUGGGACCCA", "note": "[G52C G67C]", "self-cleavage": 0.446}, {"variant": "GGCCGGCAUGGUCCCAGCCUCCUCGCUGGCGCCGGCUGGGCAACAUUCCGAUGGGACCGUCCCCUCGGUAAUGGCGAAUGGGACCCC", "note": "[G52U A87C]", "self-cleavage": 0.95}, {"variant": "GGCCGGCAUGGUCCCAGCCUCCUCGCUGGCGCCGGCUGGGCAACAUUCCGACGGGACCGUCCCCUCGAUAAUGGCGAAUGGGACCCA", "note": "[G52C G68A]", "self-cleavage": 0.564}, {"variant": "GGCCGGCAUGGUCCCAGCCUCCUCGCUGGCGCCGGCUGGGCAACAUUCCGACGGGACCGUCCCCUCGCUAAUGGCGAAUGGGACCCA", "note": "[G52C G68C]", "self-cleavage": 0.369}, {"variant": "GGCCGGCAUGGUCCCAGCCUCCUCGCUGGCGCCGGCUGGGCAACAUUCCGAUGGGACCGUCCCCUCGGUAAUGGCGAAUGGGACCGA", "note": "[G52U C86G]", "self-cleavage": 1.01}]}]}
